According to article PMC6161613, “Lack of correlation between surface expression and currents in epileptogenic AB-calmodulin binding domain Kv7.2 potassium channel mutants” (Channels, 2018):

Target: T1, Recombinant rat brain calmodulin (rat, UniProt P0DP29 1-149)
T1 construct: calmodulin, rat, recombinant; also called CaM; source: E. coli BL21 DE3, purified
Test: pull-down; purified GST fusion proteins immobilised on GSH-Sepharose 4B beads; CaM (10 μg) added, 45 min, room temperature; 25 mM Hepes, 120 mM KCl, 5 mM NaCl, pH 7.5 with 5 mM EGTA (10 mM in the results text), no Ca2+; anti-CaM Western blot, band intensities quantified (n = 3)
Conditions: both partners purified

binding result: binds
B1: GST-neurogranin (aa 1-78) (natural protein)
chain: MDCCTENACSKPDDDILDIPLDDPGANAAAAKIQASFRGHMARKKIKSGERGRKGPGPGGPGGAGVARGGAGGGPSGD
notes: neurogranin, aa 1-78, entry NP006167 as printed; also called Nrg; source: E. coli BL21 DE3, purified (GST fusion from pGEX-3X)
